The text below walks through data of the NTF2 design screens of Basanta et al. (2020).

This data set can be described thus: protease stability score; higher = more stable; yeast display proteolysis, trypsin and chymotrypsin.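 Further: relative to predicted unfolded state with 0 unfolded-like and 1 meaning tenfold more protease.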
“DESEEKAREFLEILVRDVRTGDEESAVRLLDPNVRIEQGDKELHGWEVYIHWAKHIRMRSVHLRTMEVQGDKVILRGDERQEIDGVESVRDVIVYVRKINGRWVMTSIEVL” had a protease stability score of 2.15. Under “DEEEHLARKIATIMIHTLITGNEEEMRRLADPTTRFHDEDHTFHGMEEYNRFIKEWRERFPGVKEEWKIRHIHVINGVAHFDIELRIIVGDKEVSDRVEFIIVVVDGRVKSFELRHK” stands 2.15; under “SEEEEWAEIASKLEIEIYLTGDFERFRKFADPHVRYEIHIDGREFKIHGMELYSEWLLRFKGVRLFIKDERISVIGDKLYIHINGDLEFNGRRQDVHFEFLTLKVDGRWIVKKIRNESR”, 1.59; under “DEYDHIAKLMVKLWLEWYLTGDEDYFNHYADPEVRSEVGDKRFHGRELFMRYIWEHHRERGVEIEIIVRRVEVQGEKAEVDGELIVRQGDKEHRLRVHIELKVVNGVLKKIRIEFR”, 0.561. Consider “DEEEHKSKLAVELWHKVEETGDENTMKRLADPNVRIDINGVELHGMEVLVRRLREMGADHFHVDLRRVTVVNGRVHVNTEVIIRQGDKVIILTTRLHIEKVDGRWKITTIEFE”, for which the protease stability score was determined as 1.32. Under “DDEEHSAENFARHFMENLRTGDEDRLHELADPNMQIILHFDGQHEVRHGWESYEYLVRLFGVKHIHINHFEIFYVNGRVHLRIEGHIHQGDKYREVYIHIDINKVNGRWHVESVELRIH” stands 0.93; under “DEDEESLRRMTTLLLYLWLTGDFEEMQKLADPRVKLDAENRNVHGREEWYEFMKRLGVKHSEVHHLRVINGRIDVETRVDVDGQEVRIRFIIDKVDGRWFLRRVYVH”, 1.85. The sequence “SEDEEIAKEASEVFSDVLLTGNEDLFKEMIDPNVRVIVDGQDHIGRERALEFLIIWLERRGVEFKRVRVTRHRVIDGRVQMHYEVDSVVNGRRTNDSMELHSDKVNGRWIIRIIKFR” gave a protease stability score of 2.38. The value for “DELEENSRLALELWINSFLTGDEDTTEKMADPHVRLIIDGKLFHGREAFSEHMLERSLRADHTEVRLHDRKIVGDKLIIDTRIHSHVNGVDVTLNVLLIMHKYDGRWRIHSVEIH” was 1.23; that for “DEDEEMAHWAMEVLTKLIRTGDEDTILDMIDPHARIVYGDKTHHGREHFEKIIHELGVKVFEVHEIENQGEKVTIHGRQHVNGRTYDVKLFVQKVNGRWYIKRVHIK” was 1.42. Under “DEQEKFSKEMARLFIELRLTGDWETFTHLADPDVLWEIHVDGQSERNIGWESVRHAMEKERHELRIEHIHIRDVKIQGNKIHINTEVVGQFNGRRFIVDSRIHIHIVNGRIKDVTIEIE” stands 1.16; under “DEHEEALEEFLTEMIENIKTGDWHSELKLMDPHVRILFDGVIFHGREFFFQWLRHLLQRADHVNFTIDDKKYQGDKMVIETTFHLIINGQRIERYTVLLARKVNGRWYIEEVRLH”, 2.33; under “SELEELSKEALERHNKDLRTGDWEELWRLLDPNVKLIVNGRHVHGREDATKFLLDWVRQVDHIRSIHIEDYKFQGNKLILHVRYQMDVDGKRDSREMTIYASKVDGRWIVESIEFR”, 1.64.

“TEHRHLIEQHLRDLQHDMRTGDEDNLHKLADPHVRVDIDGRQLHGREAWSKTMFELRTDIRVDRFDVQGNKIHIEGHLIEHFDGRTINMRVHIIWFKVDGRWLIHEVRIE”: the protease stability score turned out to be 1.22.

As to “DEHHKHLHHLAEHTLRLIATGDEDRFSDLADPHTRLRVNGVDVIGRELVIELWKRMLEQIRITDVHVKRSVVIDGVVHQDTELHSTVGDKRFELKTKSHIFIINGRIHMVEIQHE”, the protease stability score is -0.28. The value for “SDHDEISHDMFRLWLELHLTGDPKVLADLFDPRVRLILEVGDKRIEVHGREEFERWYREEMRHLRIEHIHIEHVEVQGEKVHAIIEVHTHVNGRRHIHKTHITMDFIDGRFKRMKIDVK” was 2.14; that for “SEEEKRIRDWARLMEEWRRTGDEEDMSRNLDPNARLILIIDGRNILFHGREEVVRVLEELKERLGFKHEEIKDSRVQGDFLHIHGTLRFDGVETEVRVDTIVINGVVRTLKYHFE” was 0.467. The value for “SKEEHETHRMIEHILKIVKTGDEENIHKNLDPHVRVNVNGRNLHGREEFVRVMYQWWHEAGVDHVHLTDFEIQGDKAHIHIDEHFNGKRHHIEIIAQKVNGKWLMREVIID” was 1.39; that for “SEVDEQAEHMSRLYLKLIKTGDEEHLMHLADPHTRLDINGKTFIGMEVVHEFNEKERRRVPNMRIHEKSVKVEVFDGRAFTEIHGEWHFDGVTQEIRIEVRIDKVNGRWTIRSVHVEIR” was 0.704; that for “SEVREDIERILTQWSKIMETGDEHTAKRLADPHVKIEVDGRTSVGMETWMEFLRDLGFKVIHVRVHIEHVRDIDGKARVDIRLVIESNVGDKTERYEHETHMIIEKIDGRWVLTRILLK” was 1.01. The value for “DEEEEIARRIFKIFVHNVLTGDEDSLRKMIDPNTRLHVDGQELHGREQALTFLHEMRIDHMELRELRVIDGRIISHIRVDGEINGRRRDIQTEIILYKVDGRWVIRQMRFQ” was 2.39; that for “SEEEDQARKIMEILIHVFLTGDWHQLMRLLDPNTRYEIRFENHEEHNHGREDIVRWLIEFIEEMRTLVIIRHIEVQGDKAILDIELQLDINGREFRWKTLLHFRIVDGVLKMYYIHIE” was 1.47. Consider “DDALRHADTLLDQFEHHMETGDEESMTRLADPDTRTDINGQHFHGRDWWREFMRRVDHHHIRSVDYHSVRLFNGQIHFDVEIDVEIVIGDKRYRTRYHFEVVIVKIDGRWLLHRIKTE”, for which the protease stability score came to 0.861.

Turning to “DEDERNAHRMTQILIRSQETGDEHELMRLLDPHARVIIGDKHIHGWEEFSKLEHEYWERYKNMTLHVRLRHVEVINGVAHIHTHITININGKEDRFEIEIFFLKINGRWVLHSFRVD”, the protease stability score was found to be 0.799. Under “DELHKHAEHMAKLIVETLETGDEDKIRELADPNVRMEIGDKRTIGREELTKLLRKWLSEWRVHDMHVESVEMQGDYTHLHTSVRGEVNGRHRELDTRIDVLVVNGRLKSLRLEIR” stands 1.04; under “DEDEEEVIKFFQEFLRDELTGDWHEVHRMLDPHARLDINGKHFVGREDVTEFFKKLVNELRIHDVHIKDVRIIGEKASIDTSVDGEVNGRKRHFETRIIILKIDGQWFLHEVHMR”, 1.47. Under “SEEEQLIRLALEWELHSEETGDEELVRENADPHVRLEINGVEVIGMELAVKILFELKEDMGIKHIELKSVDTQGDKLNIHSKYHVNGRHIDVIIISKKVNGRWRMKRIIVTIR” stands 2.46; under “SETEETVRRFFELLMKLEHTGNEEAIEKLFDPNMKWHQGEKERHGRETFSRMVSELRIHDFRLHRIEIYGDKAIIEGSVDGNFNGQRSEVEVTIHLEKIDGRWFIHSIHLS”, 1.15. The value for “DDREEDLHKALHLFRMTMLTGNEDLFRDLADPHTRVSVNGQELIGREHMEHWWKRVDHIEDSRLERVDIVDGVVLVDGRFVGTVNGRRIDTEYTIFAQKVNGQWILHSVKIV” was 1.19; that for “SDEEEEERRIAHELRHFWETGDEDAFRDMLDPHTRLQIDINGRHFHLHGREHIVRHLSEVWNKFGVKHLKFHDHHVVNGVTHMDGEENIGDKRRRVRIIIIVVNGRVRMVRIQIE” was 1.45; that for “DEREEIIRKALELFIFSMKTGDEHTLTELLDPNVRLLVGDKEFHGREVFHILIQQFKNIRVEHFEHKDWYEQGDKMRITGRLTFRQGDKRTEIDTTLIILKINGRWIMHDIVIS” was 2.17.

“SEEEELAVKMWEIWLRSFLTGDETRLDQMMDPHAKLERIINGKRQHTHGWENVLKELIRLADELRVEHIHIRSEHRQGEKLDVKGEIDGDINGVRRRVEVDIHLVIVDGRIRHVKEVIR” displayed a protease stability score of 1.12. The value for “DEEHEVLRRMVERIREMEKTGDWERYATMADPNTRVDVNGVELHGMENVAFWFWLHLYRHGIEIKDIRVRDIKVQGEKYQEDGELYGHINGQTTILEVHLEITFVNGRIHSEKISIK” was 1.25.
